Experiments:
SMARCA2 (human) [1] = target: SMARCA2 (human) (UniProt P51531); test: HA-bait purification from HEK-293T nuclear extract, mass spectrometry, peptide count
GLTSCR1L (human) = GLTSCR1L (human) (UniProt Q6AI39); test: as above
SMARCC1 (human) [2] = target: SMARCC1 (human) (UniProt Q92922); test: as above
BCL7C (human) [3] = target: BCL7C (human) (UniProt Q8WUZ0); test: as above
ACTL6A (human) [4] = target: ACTL6A (human) (UniProt O96019); test: as above
SMARCA4 (human) [5] = target: SMARCA4 (human) (UniProt P51532); test: as above
SMARCD1 (human) [6] = target: SMARCD1 (human) (UniProt Q96GM5); test: as above
GLTSCR1 (human) = GLTSCR1 (human) (UniProt Q9NZM4); test: as above
SS18 (human) [7] = target: SS18 (human) (UniProt Q15532); test: as above
BCL7A (human) [8] = target: BCL7A (human) (UniProt Q4VC05); test: as above
SMARCD2 (human) [9] = target: SMARCD2 (human) (UniProt Q92925); test: as above
ARID2 (human) = ARID2 (human) (UniProt Q68CP9); test: as above
SMARCC2 (human) [10] = target: SMARCC2 (human) (UniProt Q8TAQ2); test: as above
PHF10 (human) = PHF10 (human) (UniProt Q8WUB8); test: as above
BCL7B (human) = BCL7B (human) (UniProt Q9BQE9); test: as above
PBRM1 (human) = PBRM1 (human) (UniProt Q86U86); test: as above
ACTL6B (human) = ACTL6B (human) (UniProt O94805); test: as above
SMARCE1 (human) [11] = target: SMARCE1 (human) (UniProt Q969G3); test: as above
DPF2 (human) = DPF2 (human) (UniProt Q92785); test: as above
SMARCB1 (human) [12] = target: SMARCB1 (human) (UniProt Q12824); test: as above
SMARCD3 (human) [13] = target: SMARCD3 (human) (UniProt Q6STE5); test: as above
SMARCD2 (human) [14] = target: SMARCD2 (human) (UniProt Q92925); test: HA-bait purification from HEK-293T nuclear extract, glycerol gradient fractions 13-14, mass spectrometry, peptide count
SMARCA2 (human) [15] = target: SMARCA2 (human) (UniProt P51531); test: as above
SMARCC2 (human) [16] = target: SMARCC2 (human) (UniProt Q8TAQ2); test: as above
SMARCC1 (human) [17] = target: SMARCC1 (human) (UniProt Q92922); test: as above
ARID1A (human) = ARID1A (human) (UniProt O14497); test: as above
BCL7C (human) [18] = target: BCL7C (human) (UniProt Q8WUZ0); test: as above
ACTL6A (human) [19] = target: ACTL6A (human) (UniProt O96019); test: as above
SMARCA4 (human) [20] = target: SMARCA4 (human) (UniProt P51532); test: as above
SMARCD1 (human) [21] = target: SMARCD1 (human) (UniProt Q96GM5); test: as above
SS18L1 (human) = SS18L1 (human) (UniProt O75177); test: as above
SS18 (human) [22] = target: SS18 (human) (UniProt Q15532); test: as above
BCL7A (human) [23] = target: BCL7A (human) (UniProt Q4VC05); test: as above
SMARCE1 (human) [24] = target: SMARCE1 (human) (UniProt Q969G3); test: as above
ARID1B (human) = ARID1B (human) (UniProt Q8NFD5); test: as above
SMARCB1 (human) [25] = target: SMARCB1 (human) (UniProt Q12824); test: as above
SMARCD3 (human) [26] = target: SMARCD3 (human) (UniProt Q6STE5); test: as above

Chain of SMARCB1 (human) (Q12824 whole entry): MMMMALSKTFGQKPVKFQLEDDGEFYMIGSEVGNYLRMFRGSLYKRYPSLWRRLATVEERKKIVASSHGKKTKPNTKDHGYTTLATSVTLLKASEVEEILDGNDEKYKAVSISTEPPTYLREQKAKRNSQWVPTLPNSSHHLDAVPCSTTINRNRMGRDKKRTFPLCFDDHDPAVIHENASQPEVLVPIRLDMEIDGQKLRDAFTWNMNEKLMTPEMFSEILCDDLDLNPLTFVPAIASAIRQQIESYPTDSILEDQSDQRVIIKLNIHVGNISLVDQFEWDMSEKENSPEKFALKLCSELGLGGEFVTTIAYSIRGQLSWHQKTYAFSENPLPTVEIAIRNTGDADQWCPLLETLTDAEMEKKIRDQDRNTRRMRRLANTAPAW
Chain of BCL7A (human) (Q4VC05 whole entry): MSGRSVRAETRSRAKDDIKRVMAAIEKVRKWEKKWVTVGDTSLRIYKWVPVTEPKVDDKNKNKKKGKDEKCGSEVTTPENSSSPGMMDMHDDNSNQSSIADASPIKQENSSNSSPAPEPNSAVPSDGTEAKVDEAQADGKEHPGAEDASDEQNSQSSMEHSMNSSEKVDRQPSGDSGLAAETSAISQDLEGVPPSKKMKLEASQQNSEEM
Chain of SMARCD3 (human) (Q6STE5 2-483 limits assumed): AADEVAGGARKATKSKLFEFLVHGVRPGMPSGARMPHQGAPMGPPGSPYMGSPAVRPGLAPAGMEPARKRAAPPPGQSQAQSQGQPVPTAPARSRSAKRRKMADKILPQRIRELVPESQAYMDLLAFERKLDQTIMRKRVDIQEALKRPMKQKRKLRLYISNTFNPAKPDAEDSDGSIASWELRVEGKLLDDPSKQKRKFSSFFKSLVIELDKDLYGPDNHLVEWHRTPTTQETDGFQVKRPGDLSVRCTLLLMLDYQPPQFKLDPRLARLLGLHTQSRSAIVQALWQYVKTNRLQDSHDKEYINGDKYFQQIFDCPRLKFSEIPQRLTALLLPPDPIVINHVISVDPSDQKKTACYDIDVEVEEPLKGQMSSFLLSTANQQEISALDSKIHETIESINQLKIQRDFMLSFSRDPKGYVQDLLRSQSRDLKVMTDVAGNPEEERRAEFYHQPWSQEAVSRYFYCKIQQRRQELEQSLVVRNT
Chain of ACTL6A (human) (O96019 2-429 limits assumed): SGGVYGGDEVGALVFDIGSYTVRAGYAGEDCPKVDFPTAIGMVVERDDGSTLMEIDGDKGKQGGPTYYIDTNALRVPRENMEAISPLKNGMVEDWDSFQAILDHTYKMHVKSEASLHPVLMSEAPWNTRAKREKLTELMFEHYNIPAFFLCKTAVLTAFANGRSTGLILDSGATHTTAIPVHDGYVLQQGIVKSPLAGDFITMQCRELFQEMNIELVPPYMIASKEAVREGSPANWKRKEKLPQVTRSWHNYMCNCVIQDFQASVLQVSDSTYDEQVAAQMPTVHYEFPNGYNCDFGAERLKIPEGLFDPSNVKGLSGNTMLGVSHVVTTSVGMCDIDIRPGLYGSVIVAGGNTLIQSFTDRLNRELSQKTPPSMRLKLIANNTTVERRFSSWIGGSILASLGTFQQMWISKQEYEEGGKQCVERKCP
Chain of SMARCC2 (human) (Q8TAQ2 whole entry): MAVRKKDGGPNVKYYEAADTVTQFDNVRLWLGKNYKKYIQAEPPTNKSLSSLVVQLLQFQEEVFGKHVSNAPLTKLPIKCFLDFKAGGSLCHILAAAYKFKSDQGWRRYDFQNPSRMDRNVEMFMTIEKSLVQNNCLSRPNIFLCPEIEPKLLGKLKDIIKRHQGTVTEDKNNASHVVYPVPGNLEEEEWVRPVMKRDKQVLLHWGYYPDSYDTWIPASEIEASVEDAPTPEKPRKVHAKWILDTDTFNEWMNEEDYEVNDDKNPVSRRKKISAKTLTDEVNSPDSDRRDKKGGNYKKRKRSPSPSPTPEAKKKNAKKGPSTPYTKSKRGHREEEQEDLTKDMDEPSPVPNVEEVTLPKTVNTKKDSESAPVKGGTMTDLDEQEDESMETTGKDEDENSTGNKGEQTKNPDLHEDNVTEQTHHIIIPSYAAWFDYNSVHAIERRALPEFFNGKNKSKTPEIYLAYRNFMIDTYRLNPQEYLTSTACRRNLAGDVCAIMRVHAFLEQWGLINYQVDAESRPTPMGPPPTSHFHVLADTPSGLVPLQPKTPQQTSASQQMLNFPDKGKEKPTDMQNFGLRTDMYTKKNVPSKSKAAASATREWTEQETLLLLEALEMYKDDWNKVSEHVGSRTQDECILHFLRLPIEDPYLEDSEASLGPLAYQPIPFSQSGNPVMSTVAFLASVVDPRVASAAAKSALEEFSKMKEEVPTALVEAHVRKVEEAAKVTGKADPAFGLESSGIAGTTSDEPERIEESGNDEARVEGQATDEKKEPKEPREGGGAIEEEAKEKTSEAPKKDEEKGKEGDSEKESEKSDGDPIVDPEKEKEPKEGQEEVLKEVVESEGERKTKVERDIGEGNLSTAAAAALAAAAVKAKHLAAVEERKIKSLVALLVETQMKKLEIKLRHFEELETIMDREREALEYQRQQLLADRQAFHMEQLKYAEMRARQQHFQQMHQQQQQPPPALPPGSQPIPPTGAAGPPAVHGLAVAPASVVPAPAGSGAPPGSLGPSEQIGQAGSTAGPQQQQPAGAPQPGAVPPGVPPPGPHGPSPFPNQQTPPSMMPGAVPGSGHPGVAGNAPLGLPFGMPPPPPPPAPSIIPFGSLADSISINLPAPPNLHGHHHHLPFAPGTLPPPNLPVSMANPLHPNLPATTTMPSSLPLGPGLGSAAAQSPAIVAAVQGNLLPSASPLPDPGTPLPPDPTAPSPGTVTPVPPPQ
Chain of SMARCA2 (human) (P51531 whole entry): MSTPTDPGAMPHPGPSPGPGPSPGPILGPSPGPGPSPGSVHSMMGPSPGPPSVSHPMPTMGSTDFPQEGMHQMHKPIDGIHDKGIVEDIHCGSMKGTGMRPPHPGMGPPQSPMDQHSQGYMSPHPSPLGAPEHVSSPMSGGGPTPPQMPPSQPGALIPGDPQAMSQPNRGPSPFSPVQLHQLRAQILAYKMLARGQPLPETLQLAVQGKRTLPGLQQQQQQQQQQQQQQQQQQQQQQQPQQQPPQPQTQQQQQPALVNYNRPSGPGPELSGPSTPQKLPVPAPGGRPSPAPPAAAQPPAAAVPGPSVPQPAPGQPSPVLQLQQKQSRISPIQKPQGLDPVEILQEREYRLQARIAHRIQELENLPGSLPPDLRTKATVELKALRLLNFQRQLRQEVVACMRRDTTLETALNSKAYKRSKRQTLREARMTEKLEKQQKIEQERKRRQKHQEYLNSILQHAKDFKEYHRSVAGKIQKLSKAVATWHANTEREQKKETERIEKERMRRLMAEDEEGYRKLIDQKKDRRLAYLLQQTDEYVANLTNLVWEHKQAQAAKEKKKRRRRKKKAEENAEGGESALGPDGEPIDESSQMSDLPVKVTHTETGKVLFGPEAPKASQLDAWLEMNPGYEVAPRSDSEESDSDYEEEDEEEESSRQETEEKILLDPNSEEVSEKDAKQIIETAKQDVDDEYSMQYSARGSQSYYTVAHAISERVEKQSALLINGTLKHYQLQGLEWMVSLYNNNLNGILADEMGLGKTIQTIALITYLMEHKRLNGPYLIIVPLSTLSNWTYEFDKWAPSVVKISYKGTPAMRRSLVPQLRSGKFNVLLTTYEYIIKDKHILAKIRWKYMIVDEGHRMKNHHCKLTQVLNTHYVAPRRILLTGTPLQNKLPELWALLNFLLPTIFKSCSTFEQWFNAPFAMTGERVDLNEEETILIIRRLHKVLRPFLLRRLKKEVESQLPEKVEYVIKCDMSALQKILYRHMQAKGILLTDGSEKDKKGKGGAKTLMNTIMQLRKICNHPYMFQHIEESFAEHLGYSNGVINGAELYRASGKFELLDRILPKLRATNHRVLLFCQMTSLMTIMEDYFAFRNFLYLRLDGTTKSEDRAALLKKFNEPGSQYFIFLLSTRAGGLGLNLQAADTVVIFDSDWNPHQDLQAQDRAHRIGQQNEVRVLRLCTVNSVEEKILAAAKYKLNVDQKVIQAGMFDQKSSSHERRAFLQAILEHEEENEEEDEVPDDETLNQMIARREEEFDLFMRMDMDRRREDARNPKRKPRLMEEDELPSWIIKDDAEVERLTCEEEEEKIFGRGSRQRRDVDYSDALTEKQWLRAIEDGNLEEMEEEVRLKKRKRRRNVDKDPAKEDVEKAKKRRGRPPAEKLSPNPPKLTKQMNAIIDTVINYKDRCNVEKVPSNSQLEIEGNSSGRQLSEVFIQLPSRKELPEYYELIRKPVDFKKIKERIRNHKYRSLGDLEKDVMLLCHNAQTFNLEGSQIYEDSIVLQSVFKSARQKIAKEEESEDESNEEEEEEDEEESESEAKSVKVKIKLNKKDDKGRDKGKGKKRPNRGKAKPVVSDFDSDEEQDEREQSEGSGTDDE
Chain of SMARCD2 (human) (Q92925 whole entry): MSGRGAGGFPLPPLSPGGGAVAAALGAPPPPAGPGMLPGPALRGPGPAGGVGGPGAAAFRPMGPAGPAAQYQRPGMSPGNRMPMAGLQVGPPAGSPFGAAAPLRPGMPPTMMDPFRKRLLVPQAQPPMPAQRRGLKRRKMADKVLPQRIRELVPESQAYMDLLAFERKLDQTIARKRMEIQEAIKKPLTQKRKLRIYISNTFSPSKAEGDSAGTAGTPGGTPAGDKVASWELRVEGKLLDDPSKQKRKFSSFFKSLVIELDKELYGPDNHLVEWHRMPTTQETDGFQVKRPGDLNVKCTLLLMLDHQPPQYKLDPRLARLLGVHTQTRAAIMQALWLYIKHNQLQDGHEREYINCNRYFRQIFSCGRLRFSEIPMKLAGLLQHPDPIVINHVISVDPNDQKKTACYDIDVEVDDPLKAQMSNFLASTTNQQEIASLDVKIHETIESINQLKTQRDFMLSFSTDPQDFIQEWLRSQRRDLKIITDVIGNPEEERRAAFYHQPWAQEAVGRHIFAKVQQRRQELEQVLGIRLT
Chain of BCL7B (human) (Q9BQE9 whole entry): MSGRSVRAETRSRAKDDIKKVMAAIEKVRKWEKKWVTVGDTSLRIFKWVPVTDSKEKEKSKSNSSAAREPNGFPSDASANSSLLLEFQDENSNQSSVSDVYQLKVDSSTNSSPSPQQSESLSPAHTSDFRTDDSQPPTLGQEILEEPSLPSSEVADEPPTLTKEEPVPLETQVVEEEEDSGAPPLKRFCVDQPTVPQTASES

HA-BRD9 (from UniProt Q9H8M2 1-597)
Total (SMARCA2 (human) [1]): 49 peptides
Unique (SMARCA2 (human) [1]): 27 peptides
Total (GLTSCR1L (human)): 16 peptides
Unique (GLTSCR1L (human)): 14 peptides
Total (SMARCC1 (human) [2]): 53 peptides
Unique (SMARCC1 (human) [2]): 36 peptides
Total (BCL7C (human) [3]): 3 peptides
Unique (BCL7C (human) [3]): 3 peptides
Unique (ACTL6A (human) [4]): 10 peptides
Total (SMARCA4 (human) [5]): 31 peptides
Unique (SMARCA4 (human) [5]): 20 peptides
Total (SMARCD1 (human) [6]): 33 peptides
Unique (SMARCD1 (human) [6]): 22 peptides
Total (GLTSCR1 (human)): 62 peptides
Unique (GLTSCR1 (human)): 33 peptides
Total (SS18 (human) [7]): 1 peptides
Unique (SS18 (human) [7]): 1 peptides
Total (BCL7A (human) [8]): 6 peptides
Unique (BCL7A (human) [8]): 5 peptides

HA-BRD7 (from UniProt Q9NPI1 1-651)
Total (SMARCD2 (human) [9]): 59 peptides
Unique (SMARCD2 (human) [9]): 34 peptides
Total (ARID2 (human)): 157 peptides
Unique (ARID2 (human)): 67 peptides
Total (SMARCA2 (human) [1]): 146 peptides
Unique (SMARCA2 (human) [1]): 85 peptides
Total (SMARCC2 (human) [10]): 136 peptides
Unique (SMARCC2 (human) [10]): 64 peptides
Total (SMARCC1 (human) [2]): 203 peptides
Unique (SMARCC1 (human) [2]): 83 peptides
Total (BCL7C (human) [3]): 17 peptides
Unique (BCL7C (human) [3]): 10 peptides
Total (ACTL6A (human) [4]): 44 peptides
Unique (ACTL6A (human) [4]): 28 peptides
Total (PHF10 (human)): 58 peptides
Unique (PHF10 (human)): 31 peptides
Total (SMARCA4 (human) [5]): 107 peptides
Unique (SMARCA4 (human) [5]): 53 peptides
Total (BCL7B (human)): 4 peptides
Unique (BCL7B (human)): 3 peptides
Total (PBRM1 (human)): 404 peptides
Unique (PBRM1 (human)): 147 peptides
Total (BCL7A (human) [8]): 36 peptides
Unique (BCL7A (human) [8]): 21 peptides
Total (ACTL6B (human)): 1 peptides
Unique (ACTL6B (human)): 1 peptides
Total (SMARCE1 (human) [11]): 81 peptides
Unique (SMARCE1 (human) [11]): 40 peptides
Total (DPF2 (human)): 1 peptides
Unique (DPF2 (human)): 1 peptides
Total (SMARCB1 (human) [12]): 59 peptides
Unique (SMARCB1 (human) [12]): 26 peptides
Total (SMARCD3 (human) [13]): 23 peptides
Unique (SMARCD3 (human) [13]): 20 peptides

HA-DPF2 (from UniProt Q92785 1-391)
Total (SMARCD2 (human) [14]): 51 peptides
Unique (SMARCD2 (human) [14]): 32 peptides
Total (SMARCA2 (human) [15]): 130 peptides
Unique (SMARCA2 (human) [15]): 74 peptides
Total (SMARCC2 (human) [16]): 105 peptides
Unique (SMARCC2 (human) [16]): 52 peptides
Total (SMARCC1 (human) [17]): 359 peptides
Unique (SMARCC1 (human) [17]): 87 peptides
Total (ARID1A (human)): 311 peptides
Unique (ARID1A (human)): 114 peptides
Total (BCL7C (human) [18]): 13 peptides
Unique (BCL7C (human) [18]): 7 peptides
Total (ACTL6A (human) [19]): 61 peptides
Unique (ACTL6A (human) [19]): 23 peptides
Total (SMARCA4 (human) [20]): 88 peptides
Unique (SMARCA4 (human) [20]): 47 peptides
Total (SMARCD1 (human) [21]): 83 peptides
Unique (SMARCD1 (human) [21]): 37 peptides
Total (SS18L1 (human)): 3 peptides
Unique (SS18L1 (human)): 2 peptides
Total (SS18 (human) [22]): 2 peptides
Unique (SS18 (human) [22]): 2 peptides
Total (BCL7A (human) [23]): 36 peptides
Total (SMARCE1 (human) [24]): 118 peptides
Unique (SMARCE1 (human) [24]): 40 peptides
Total (ARID1B (human)): 147 peptides
Unique (ARID1B (human)): 85 peptides
Total (SMARCB1 (human) [25]): 62 peptides
Unique (SMARCB1 (human) [25]): 22 peptides
Total (SMARCD3 (human) [26]): 23 peptides
Unique (SMARCD3 (human) [26]): 20 peptides

Reference: patent US20210388040A1
